The chains are these.
B1: Hairpin Ribozyme (parent)
chain: GUCCUCUUUCACGUGCGCGUGAAAGAGAGAAGUGAACCAGAGAAACACACGUUGUGGUAUAUUACCUGGUA

Variants of B1 are the subject of this data set. The data set can be described thus: self-cleavage, relative activity (ratio to wild type); higher = more cleavage; co-transcriptional.
On to GUCCUCUUUCACGUGCGCGUGAAAGAGAGAAGUGAACCAAAGAAACACACGUUGUGGUAUAUUCCCUGGUA [G40A A64C], for which the self-cleavage is 0.16.
For GUCCUCUUUCACGUGCGCGUAAAAGAGAGAAGUGAACCAUAGAAACACACGUUGUGGUAUAUUACCUGGUA [G21A G40U], the self-cleavage amounted to 0.151.
As for GUCCUCUUUCACGUGCGCGUGAAAGAGAGAUGUGAACCACAGAAACACACGUUGUGGUAUAUUACCUGGUA [A31U G40C], the self-cleavage turned out to be 0.154.
As for GUCAUCUUUCACGUGCGCGUGAAAGAGAGAAGUGAACCAGAGAAACACACGUUGUGGUAUAUUACGUGGUA [C4A C66G], the self-cleavage worked out at 0.193.
With GUCCUCUGUCACGUGCGCGUGAAAGAGAGAAGUGAACCAGAGAAACACACGUGGUGGUAUAUUACCUGGUA [U8G U53G] the figure was 0.705; with GUCCUCUUUCACGUGCGCGUGAAAGAGAGACGUGAACCAGAGAGACACACGUUGUGGUAUAUUACCUGGUA [A31C A44G], 0.174; with GUCCUCUUUCAAGUGCGCGGGAAAGAGAGAAGUGAACCAGAGAAACACACGUUGUGGUAUAUUACCUGGUA [C12A U20G], 0.732.
As to GUCCUCUUUCACGUGCGCGUGAAAGAGAGAAGUGAAACAGAGAAACACACGUUGUGGUAUGUUACCUGGUA [C37A A61G], the self-cleavage was 0.207.
For the variant GUCCUCUUUCACGUGCGCGUGAAAGUGAGAAGUGAACCAGAGAAACACACGUUGUGGUAUAUCACCUGGUA [A26U U63C], the self-cleavage came to 0.199.
AUCCUCUUUCACGUGCGCGUGAAAGAGAGAAGUGAACCAGAGAAACACACGUUGUGGUAUAUUUCCUGGUA [G1A A64U]: the self-cleavage is 0.272.
Turning to GUCCUCUUUCACGUGCGCGUGAAAGAGAGAAGUGAACCAGAGAAACACGCGUUGUGGUAUAUAACCUGGUA [A49G U63A], the self-cleavage came to 0.0688.
With GUCCUCUUUCACGUACGCGUGAAAGAAAGAAGUGAACCAGAGAAACACACGUUGUGGUAUAUUACCUGGUA [G15A G27A] the figure was 0.541; with GUCCUCUUUCACGUGCGCGUGAAAGAGAGAAGUGAACCAGAGAAACACACUUAGUGGUAUAUUACCUGGUA [G51U U53A], 1.07; with GUCCUCUUUCACGUGCGCGAGAAAGAGAGAAGUGAACCAGAGAAACACCCGUUGUGGUAUAUUACCUGGUA [U20A A49C], 0.131.
In the case of GUCCUCUUCCACGUGCGCGUGAAAGAGAGAAGUGAACCAGAGAAACACGCGUUGUGGUAUAUUACCUGGUA [U9C A49G], the self-cleavage amounted to 0.21.
With GUCCUCUUUCACGUGCGCGUGAAAGAGAGAGGUGAACCAGAGAAACACACGUUGUGGCAUAUUACCUGGUA [A31G U58C] the figure was 0.793; with GGCCUCUUUCACGUGCGCGUGAAAGAGAGAAGUGAACUAGAGAAACACACGUUGUGGUAUAUUACCUGGUA [U2G C38U], 0.24.
On to GUCCUCUUUCACGUGCGCGUGAAAGACAGAAGUUAACCAGAGAAACACACGUUGUGGUAUAUUACCUGGUA [G27C G34U], for which the self-cleavage was found to be 0.779.
Consider GUCCUCUUUCACGUGCGCGUGAAAGACAGAAGUGAACCAGAGAAACAUACGUUGUGGUAUAUUACCUGGUA [G27C C48U], for which the self-cleavage was found to be 0.231.
With GUACUCUUUCACGUGCGCGUGAAAGAGAGAAGUGAACCAGAGAAACACACGUUGUGGUAUAUAACCUGGUA [C3A U63A] the figure was 0.0798; with GUCCUCUUUCACCUGCGCGCGAAAGAGAGAAGUGAACCAGAGAAACACACGUUGUGGUAUAUUACCUGGUA [G13C U20C], 0.785; with UUCCUCUUUCACGUGCGCGUGAAAGAGAGAAGUGAACCAGAGAAACACACGUUGUGGUACAUUACCUGGUA [G1U U60C], 0.
Regarding GUCCUCUUUCACGUGCGCGUGAAAGAGAGAAGUGAACCAGAGAAACACACGUUGUGAUAUAUUACAUGGUA [G57A C66A], the self-cleavage amounted to 0.215.
Turning to GUCCUGUUUCACGUGCGCGUGAAAGAGAGAAGUGAACCAGAGAAACAGACGUUGUGGUAUAUUACCUGGUA [C6G C48G], the self-cleavage turned out to be 0.115.
With GUCCUCUUUCACGUGCGCGUGAAAUAGAGAAGUGAACCAGAGAAACACAUGUUGUGGUAUAUUACCUGGUA [G25U C50U] the figure was 0.287; with GUCCUCUUUCACGUGCGCGUGAAAGAGAGAAGUGAACCAGAGAAACACACGCUGUGCUAUAUUACCUGGUA [U52C G57C], 0.123; with GUCCUCUUUCACAUGCGCGUGAAAGAGAGAAGUGAACCAGAGAAACACACGUUGUGGUAUAUUACCAGGUA [G13A U67A], 0.27.
With GUCCUCUUUCACGUGCGCGUGAAAGAGCGAAGUGAAGCAGAGAAACACACGUUGUGGUAUAUUACCUGGUA [A28C C37G] the figure was 0.199.
With GUCCUCUUUCACGUGCGCGUGAAAGAGAGAAGUGAACCAGAGAAACAUACGUUGUGGUAUAUUACCGGGUA [C48U U67G] the figure was 0.0927; with GUCCUCUCUCACGUGCGCGUGAAAGAGAGAAGUGAACCAGAGAAACACACGUUGUGAUAUAUUACCUGGUA [U8C G57A], 0.119.
For the variant GUCCUCUUUCACGUGUGCGUGAAAGAGAGAAGUGCACCAGAGAAACACACGUUGUGGUAUAUUACCUGGUA [C16U A35C], the self-cleavage was determined as 1.39.
With GUCCUCUUUCACGUGCGCGUGAAAGAGAGAAGUGAACCAGAGAAACACAAGUUGUGGUAUAUUACCUGGAA [C50A U70A] the figure was 0.303; with GUCCUCUUUCACGUGCGCGUGAAAGAGUGAAGUGAACCAGAGAGACACACGUUGUGGUAUAUUACCUGGUA [A28U A44G], 0.25; with GUCCUCUUUCACGUGCGCGUGAAAGAGAGAAGUGAACCAGAGAAACACACGUUGUGGCAUAUUACCUUGUA [U58C G68U], 0.169.
On to GUCCUCUUUCACGUGCGUGUGAAAGAGAGAAGUGAACCAGAGAAACACACGUUGUGGGAUAUUACCUGGUA [C18U U58G], for which the self-cleavage stood at 0.991.
The figure for GUCCUCUUUCACGUGCGCGUGAAAGAGAGAAGUGAACCAGAGAAACACACCUUGUGGUAUAUUACCUAGUA [G51C G68A] is 0.254.
With GUCUUCUUUCACGUGCGCGUGAAAUAGAGAAGUGAACCAGAGAAACACACGUUGUGGUAUAUUACCUGGUA [C4U G25U] the figure was 0.126.
The figure for GUCCUCUUUCACGUGCGCGUGAAAGGGAGAAGUGAACCAGAGAAACACACGAUGUGGUAUAUUACCUGGUA [A26G U52A] is 0.896.

These data come from the RNAGym collection of RNA variant scans (doi:10.7554/elife.80360).
